Data from the supplement of paper PMC10567573.

B1: SLC22A15 (parent)
chain: IAQYALLGYFIRSWRTLAILVNLQ
B2: RSPH3 (parent)
chain: KAASLARNLAKRRRTYLGGAAGRS

Variants of: B1
Assay: protein stability index of a GFP-peptide fusion (GPS, HEK-293T) (PSI 1-6); higher = more stable
Conditions: c terminus: a fixed tail appended
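Note: lentivirally expressed fusions sorted by FACS into six bins by GFP to DsRed ratio, PSI derived from sequencing read proportions per bin multiplied by bin number.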

Point of comparison: IIQYALLGYFIRSWRTLAILVNLQ, protein stability index 3.22. Against it:
- IFQYALLGYFIRSWRTLAILVNLQ — lower, 1.95
- IVQYALLGYFIRSWRTLAILVNLQ — lower, 2.88
- ISQYALLGYFIRSWRTLAILVNLQ — lower, 2.1
- IKQYALLGYFIRSWRTLAILVNLQ — lower, 2.18
- IMQYALLGYFIRSWRTLAILVNLQ — higher, 3.88
- IRQYALLGYFIRSWRTLAILVNLQ — higher, 3.65
- IEQYALLGYFIRSWRTLAILVNLQ — lower, 2.65
- IPQYALLGYFIRSWRTLAILVNLQ — higher, 4.19
- INQYALLGYFIRSWRTLAILVNLQ — higher, 4.69
- IGQYALLGYFIRSWRTLAILVNLQ — lower, 2.41
- IHQYALLGYFIRSWRTLAILVNLQ — lower, 2.48
- ITQYALLGYFIRSWRTLAILVNLQ — lower, 3.18
- DAQYALLGYFIRSWRTLAILVNLQ — lower, 2.92
- PAQYALLGYFIRSWRTLAILVNLQ — lower, 1.52
- NAQYALLGYFIRSWRTLAILVNLQ — higher, 4.39
- VAQYALLGYFIRSWRTLAILVNLQ — lower, 2.17
- IAVYALLGYFIRSWRTLAILVNLQ — higher, 4.91
- IAKYALLGYFIRSWRTLAILVNLQ — lower, 1.96
- IARYALLGYFIRSWRTLAILVNLQ — higher, 4.63
- IAGYALLGYFIRSWRTLAILVNLQ — higher, 3.38
- IAHYALLGYFIRSWRTLAILVNLQ — lower, 2.13
- IAAYALLGYFIRSWRTLAILVNLQ — lower, 3.14
- IACYALLGYFIRSWRTLAILVNLQ — higher, 3.46
- IALYALLGYFIRSWRTLAILVNLQ — lower, 3.15
- IADYALLGYFIRSWRTLAILVNLQ — lower, 2.29
- IAQCALLGYFIRSWRTLAILVNLQ — higher, 3.29
- IAQEALLGYFIRSWRTLAILVNLQ — higher, 3.39
- IAQAALLGYFIRSWRTLAILVNLQ — lower, 3

Variants of: B2
Assay: as above
Conditions: c terminus: a fixed tail appended

Point of comparison: KAASLARNLAKRRRTYLGGADGRS, protein stability index 2.69. Against it:
- KAASLARNLAKRRRTYLGGAWGRS — lower, 1.7
- KAASLARNLAKRRRTYLGGAEGRS — higher, 3.14
- KAASLARNLAKRRRTYLGGAPGRS — lower, 2.68
- KAASLARNLAKRRRTYLGGAKGRS — higher, 3.2
- KAASLARNLAKRRRTYLGGARGRS — lower, 1.71
- KAASLARNLAKRRRTYLGGAVGRS — lower, 2.25
- KAASLARNLAKRRRTYLGGAIGRS — lower, 1.91
- KAASLARNLAKRRRTYLGGAALRS — lower, 2.42
- KAASLARNLAKRRRTYLGGAAHRS — lower, 1.44
- KAASLARNLAKRRRTYLGGAANRS — higher, 3.29
- KAASLARNLAKRRRTYLGGAAWRS — lower, 1.44
- KAASLARNLAKRRRTYLGGAAYRS — lower, 2
- KAASLARNLAKRRRTYLGGAAKRS — lower, 2.05
- KAASLARNLAKRRRTYLGGAAFRS — lower, 2.17
- KAASLARNLAKRRRTYLGGAADRS — lower, 2.03
- KAASLARNLAKRRRTYLGGAAGKS — lower, 2.14
- KAASLARNLAKRRRTYLGGAAGPS — higher, 2.83
